{"source": "paper PMC4454200", "molecular_target": "Full-length mouse melanocyte-type myosin-5a (Myo5a-FL) (mouse) (UniProt Q99104)", "sequence (Q99104 whole entry)": "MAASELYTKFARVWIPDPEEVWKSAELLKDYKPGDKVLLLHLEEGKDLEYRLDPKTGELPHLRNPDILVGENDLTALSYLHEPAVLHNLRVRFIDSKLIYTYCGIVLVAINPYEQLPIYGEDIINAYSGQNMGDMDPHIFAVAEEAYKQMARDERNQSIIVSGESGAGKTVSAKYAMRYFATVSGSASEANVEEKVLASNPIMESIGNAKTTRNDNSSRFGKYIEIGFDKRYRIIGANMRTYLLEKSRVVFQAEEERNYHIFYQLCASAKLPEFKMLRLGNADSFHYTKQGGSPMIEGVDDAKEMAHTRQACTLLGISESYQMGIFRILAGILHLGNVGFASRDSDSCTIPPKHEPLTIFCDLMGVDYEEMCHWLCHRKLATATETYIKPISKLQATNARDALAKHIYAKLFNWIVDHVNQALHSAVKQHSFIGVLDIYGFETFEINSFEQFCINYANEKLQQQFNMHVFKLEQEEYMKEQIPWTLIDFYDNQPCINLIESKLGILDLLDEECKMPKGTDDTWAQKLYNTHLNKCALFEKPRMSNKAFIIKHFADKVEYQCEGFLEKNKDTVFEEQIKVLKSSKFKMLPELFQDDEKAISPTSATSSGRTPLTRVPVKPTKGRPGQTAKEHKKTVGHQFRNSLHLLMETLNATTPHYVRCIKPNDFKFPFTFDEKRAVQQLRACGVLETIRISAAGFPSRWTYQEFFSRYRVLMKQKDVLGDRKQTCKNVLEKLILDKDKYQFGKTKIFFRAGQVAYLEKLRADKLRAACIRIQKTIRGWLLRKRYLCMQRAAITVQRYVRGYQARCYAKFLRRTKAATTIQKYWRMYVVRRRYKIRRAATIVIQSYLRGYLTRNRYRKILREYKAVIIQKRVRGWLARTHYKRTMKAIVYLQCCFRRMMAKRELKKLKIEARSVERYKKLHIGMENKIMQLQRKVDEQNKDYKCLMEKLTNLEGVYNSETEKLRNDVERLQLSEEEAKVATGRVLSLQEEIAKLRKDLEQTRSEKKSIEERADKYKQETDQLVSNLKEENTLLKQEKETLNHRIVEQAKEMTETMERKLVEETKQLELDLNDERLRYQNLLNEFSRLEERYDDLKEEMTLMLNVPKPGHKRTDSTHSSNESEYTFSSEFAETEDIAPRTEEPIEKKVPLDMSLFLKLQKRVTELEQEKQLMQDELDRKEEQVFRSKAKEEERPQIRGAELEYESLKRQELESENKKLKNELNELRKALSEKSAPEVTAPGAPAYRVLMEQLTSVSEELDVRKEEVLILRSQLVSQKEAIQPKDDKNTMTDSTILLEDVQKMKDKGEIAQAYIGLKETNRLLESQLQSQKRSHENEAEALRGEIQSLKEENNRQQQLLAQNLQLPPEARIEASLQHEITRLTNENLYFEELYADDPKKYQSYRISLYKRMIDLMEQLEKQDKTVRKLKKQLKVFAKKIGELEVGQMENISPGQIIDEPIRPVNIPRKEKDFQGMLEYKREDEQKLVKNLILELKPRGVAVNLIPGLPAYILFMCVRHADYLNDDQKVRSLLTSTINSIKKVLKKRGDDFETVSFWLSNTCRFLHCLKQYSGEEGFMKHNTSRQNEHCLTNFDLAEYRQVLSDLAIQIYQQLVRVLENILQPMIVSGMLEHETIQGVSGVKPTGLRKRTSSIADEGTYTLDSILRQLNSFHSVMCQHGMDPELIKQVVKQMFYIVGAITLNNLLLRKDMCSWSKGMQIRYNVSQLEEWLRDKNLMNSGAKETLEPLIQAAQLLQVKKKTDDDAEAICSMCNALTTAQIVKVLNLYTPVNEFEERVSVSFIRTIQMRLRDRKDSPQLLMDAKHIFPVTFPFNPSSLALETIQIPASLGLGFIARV"}
{"binder": "RDQPLNSKKKKRLLSFRDVDFEEDSDY", "note": "[Mlph-GTBDP, 26-residue Myo5a-GTD binding peptide of melanophilin with a C-terminal tyrosine]", "values": [{"measurement": "stimulation of the actin-activated ATPase activity of Myo5a-FL by Mlph-GTBDP (EGTA conditions, 40 uM actin), hyperbolic fit: apparent Kd", "value": 19.8, "unit": "µM"}]}
